The record followed here is the supplement of paper PMC9112550, “Optimization of the antimicrobial peptide Bac7 by deep mutational scanning” (BMC Biology, 2022).

This data set relates to Escherichia coli TOP10. Kind of data set: shrunken log2 fold change of peptide-encoding DNA abundance (4.5 h post-induction vs induction); higher = less antimicrobial activity (less host growth inhibition). Conditions: time post-induction: 4.5 h; library: site-saturation at positions 5, 18, 19, 20.
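Note: peptides expressed intracellularly from a pBAD plasmid library in pooled LB shake-flask culture, induced with 0.3% L-arabinose, DNA abundance read by NGS, three biological replicates, DESeq2 with apeglm shrinkage.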

For RRIRQRPPRLPRPRPRPKCQPRP, the “shrunken log2 fold change” value was determined as 0.0473. In the case of RRIRGRPPRLPRPRPRPFRCPRP it was 0.0939; in that of RRIRERPPRLPRPRPRPIIWPRP, -0.204.

On to RRIRDRPPRLPRPRPRPMVFPRP, for which the “shrunken log2 fold change” value is -0.0423. In the case of RRIRFRPPRLPRPRPRPEGYPRP it was 0.0525.

As for RRIRIRPPRLPRPRPRPGYLPRP, the “shrunken log2 fold change” value turned out to be 2.69. The result for RRIRLRPPRLPRPRPRPRMSPRP reads -1; that for RRIRQRPPRLPRPRPRPKIYPRP, -0.277. The result for RRIRTRPPRLPRPRPRPIHNPRP reads -0.714; that for RRIRWRPPRLPRPRPRPFGTPRP, 0.00184. In the case of RRIRTRPPRLPRPRPRPKTDPRP it was -0.158; in that of RRIRDRPPRLPRPRPRPQTDPRP, -0.0328. As to RRIRLRPPRLPRPRPRPTHKPRP, the “shrunken log2 fold change” value was determined as 0.38. The result for RRIRERPPRLPRPRPRPAMAPRP reads 0.631; that for RRIRHRPPRLPRPRPRPRMGPRP, -0.00555; that for RRIRIRPPRLPRPRPRPLVQPRP, -0.884.

On to RRIRGRPPRLPRPRPRPRQCPRP, for which the “shrunken log2 fold change” value is 0.216. RRIRRRPPRLPRPRPRPGYYPRP: the “shrunken log2 fold change” value was -0.105. With RRIRVRPPRLPRPRPRPTQCPRP, the “shrunken log2 fold change” value is -0.0227.

RRIRNRPPRLPRPRPRPPRAPRP: the “shrunken log2 fold change” value is 0.658. In the case of RRIRTRPPRLPRPRPRPHKIPRP it was -0.587.

RRIRFRPPRLPRPRPRPCHAPRP: the “shrunken log2 fold change” value is -0.193. In the case of RRIRYRPPRLPRPRPRPVRHPRP it was -0.245. In the case of RRIRERPPRLPRPRPRPGTVPRP it was -0.973; in that of RRIRDRPPRLPRPRPRPWITPRP, -0.123. In the case of RRIRARPPRLPRPRPRPMMDPRP it was -0.203; in that of RRIRWRPPRLPRPRPRPCDCPRP, -0.291; in that of RRIRQRPPRLPRPRPRPDFGPRP, 0.0964. As to RRIRIRPPRLPRPRPRPDHHPRP, the “shrunken log2 fold change” value is -1.37. The result for RRIRDRPPRLPRPRPRPVRYPRP reads 0.152; that for RRIRWRPPRLPRPRPRPCCYPRP, -0.295. In the case of RRIRIRPPRLPRPRPRPPMWPRP it was 0.00227; in that of RRIRTRPPRLPRPRPRPESKPRP, 0.214. The result for RRIRYRPPRLPRPRPRPLLEPRP reads -0.17. For the sequence RRIRTRPPRLPRPRPRPTPVPRP, the “shrunken log2 fold change” value amounted to 0.313.

Regarding RRIRRRPPRLPRPRPRPTRDPRP, the “shrunken log2 fold change” value was 0.64.

With RRIRLRPPRLPRPRPRPCQRPRP, the “shrunken log2 fold change” value was -0.00788. The result for RRIRHRPPRLPRPRPRPEGCPRP reads 0.0614. As to RRIRPRPPRLPRPRPRPMNRPRP, the “shrunken log2 fold change” value was -0.118. As to RRIRARPPRLPRPRPRPNKIPRP, the “shrunken log2 fold change” value was -0.136.

As for RRIRTRPPRLPRPRPRPHCKPRP, the “shrunken log2 fold change” value was -0.222. The result for RRIRERPPRLPRPRPRPDELPRP reads -0.00377; that for RRIRRRPPRLPRPRPRPNHCPRP, -0.142; that for RRIRVRPPRLPRPRPRPKSHPRP, 1.35. As to RRIRHRPPRLPRPRPRPAFKPRP, the “shrunken log2 fold change” value was -0.0994.

Take RRIRIRPPRLPRPRPRPYEGPRP: the “shrunken log2 fold change” value is -0.00931. The result for RRIRLRPPRLPRPRPRPINNPRP reads -0.705; that for RRIRTRPPRLPRPRPRPVGKPRP, 0.0504; that for RRIRGRPPRLPRPRPRPDQKPRP, 0.0127. Regarding RRIRNRPPRLPRPRPRPWCLPRP, the “shrunken log2 fold change” value was -0.472.

Turning to RRIRARPPRLPRPRPRPSRIPRP, the “shrunken log2 fold change” value was 0.163. The result for RRIRWRPPRLPRPRPRPFQQPRP reads -0.0106. The result for RRIRKRPPRLPRPRPRPPYKPRP reads -0.142; that for RRIRNRPPRLPRPRPRPISKPRP, -0.472; that for RRIRHRPPRLPRPRPRPISKPRP, -0.929. In the case of RRIRPRPPRLPRPRPRPDFHPRP it was -0.26; in that of RRIRNRPPRLPRPRPRPCHNPRP, -0.818.

Consider RRIRYRPPRLPRPRPRPCYCPRP, for which the “shrunken log2 fold change” value is -0.185.

For RRIRNRPPRLPRPRPRPTQTPRP, the “shrunken log2 fold change” value is -0.0444. The result for RRIRPRPPRLPRPRPRPGDEPRP reads 0.156; that for RRIRCRPPRLPRPRPRPTIYPRP, -0.644; that for RRIRCRPPRLPRPRPRPWSQPRP, -0.0595. Take RRIRVRPPRLPRPRPRPDCCPRP: the “shrunken log2 fold change” value is -0.0439. In the case of RRIRGRPPRLPRPRPRPVYIPRP it was -0.194. Consider RRIRNRPPRLPRPRPRPDPDPRP, for which the “shrunken log2 fold change” value was determined as 0.0692. In the case of RRIRARPPRLPRPRPRPPTKPRP it was 0.486; in that of RRIRQRPPRLPRPRPRPYRMPRP, 3.17.

Regarding RRIRSRPPRLPRPRPRPSYKPRP, the “shrunken log2 fold change” value is -0.659. In the case of RRIRWRPPRLPRPRPRPDEFPRP it was 0.196. Take RRIRTRPPRLPRPRPRPCNTPRP: the “shrunken log2 fold change” value was -0.21. The result for RRIRLRPPRLPRPRPRPGSVPRP reads 0.0433; that for RRIRIRPPRLPRPRPRPCFAPRP, -0.1.

Consider RRIRLRPPRLPRPRPRPHFCPRP, for which the “shrunken log2 fold change” value stood at 0.0717.

In the case of RRIRTRPPRLPRPRPRPNPIPRP, the “shrunken log2 fold change” value is -0.157.

RRIRTRPPRLPRPRPRPNTQPRP: the “shrunken log2 fold change” value is -0.0477.

Take RRIRPRPPRLPRPRPRPGTPPRP: the “shrunken log2 fold change” value worked out at 0.0946. In the case of RRIRLRPPRLPRPRPRPGPEPRP it was 0.685. RRIRPRPPRLPRPRPRPNGEPRP: the “shrunken log2 fold change” value worked out at 0.137. The result for RRIRFRPPRLPRPRPRPTSMPRP reads -0.00284.

In the case of RRIRIRPPRLPRPRPRPTLEPRP, the “shrunken log2 fold change” value worked out at 2.35. Take RRIRFRPPRLPRPRPRPSITPRP: the “shrunken log2 fold change” value is -0.262.

As for RRIRYRPPRLPRPRPRPIYFPRP, the “shrunken log2 fold change” value worked out at 0.548.

As to RRIRSRPPRLPRPRPRPPPHPRP, the “shrunken log2 fold change” value came to 0.752. The result for RRIRIRPPRLPRPRPRPGNCPRP reads -0.549; that for RRIRPRPPRLPRPRPRPNQKPRP, -0.0811; that for RRIRIRPPRLPRPRPRPIVPPRP, -0.407. The result for RRIRVRPPRLPRPRPRPLMKPRP reads -0.269; that for RRIRERPPRLPRPRPRPLNDPRP, -0.272. The result for RRIRCRPPRLPRPRPRPEGIPRP reads -0.106; that for RRIRDRPPRLPRPRPRPWSNPRP, -0.678; that for RRIRARPPRLPRPRPRPGYGPRP, 0.277. Consider RRIRDRPPRLPRPRPRPPWRPRP, for which the “shrunken log2 fold change” value worked out at 0.499. The result for RRIRMRPPRLPRPRPRPYWLPRP reads -0.0329; that for RRIRNRPPRLPRPRPRPIIDPRP, -0.361; that for RRIRARPPRLPRPRPRPHLKPRP, 0.01. On to RRIRPRPPRLPRPRPRPSSNPRP, for which the “shrunken log2 fold change” value was -0.388. In the case of RRIRDRPPRLPRPRPRPETRPRP it was 1.11. The result for RRIRARPPRLPRPRPRPPTNPRP reads 0.678; that for RRIRPRPPRLPRPRPRPMNIPRP, -0.793.

RRIRTRPPRLPRPRPRPKMMPRP: the “shrunken log2 fold change” value was determined as 0.332.

Take RRIRRRPPRLPRPRPRPLQTPRP: the “shrunken log2 fold change” value came out at 1.59. The result for RRIRHRPPRLPRPRPRPAEIPRP reads 0.000898. Turning to RRIRKRPPRLPRPRPRPENFPRP, the “shrunken log2 fold change” value is -0.00264. The result for RRIRTRPPRLPRPRPRPWSHPRP reads -0.113.

On to RRIRSRPPRLPRPRPRPQQNPRP, for which the “shrunken log2 fold change” value is -0.0687. RRIRCRPPRLPRPRPRPYHNPRP: the “shrunken log2 fold change” value was -1.12. The result for RRIRRRPPRLPRPRPRPDPNPRP reads 0.0237; that for RRIRMRPPRLPRPRPRPGTQPRP, 0.407; that for RRIRLRPPRLPRPRPRPLLAPRP, 0.188. The result for RRIRHRPPRLPRPRPRPWIAPRP reads 0.143. For RRIRRRPPRLPRPRPRPNTQPRP, the “shrunken log2 fold change” value was 0.0214. In the case of RRIRNRPPRLPRPRPRPPNIPRP it was -0.226; in that of RRIRRRPPRLPRPRPRPDWYPRP, 0.0693; in that of RRIRGRPPRLPRPRPRPDLNPRP, 0.843. In the case of RRIRWRPPRLPRPRPRPIGPPRP it was -0.0272; in that of RRIRCRPPRLPRPRPRPWFAPRP, -0.183; in that of RRIRTRPPRLPRPRPRPNQGPRP, -0.493.

Consider RRIRPRPPRLPRPRPRPEYDPRP, for which the “shrunken log2 fold change” value stood at 0.101. For RRIRSRPPRLPRPRPRPSEMPRP, the “shrunken log2 fold change” value is -0.114. The result for RRIRNRPPRLPRPRPRPTAEPRP reads -0.0644; that for RRIRLRPPRLPRPRPRPQTLPRP, -0.0114; that for RRIRYRPPRLPRPRPRPEFEPRP, -0.00195. The result for RRIRLRPPRLPRPRPRPRHSPRP reads 0.0207; that for RRIRTRPPRLPRPRPRPQNHPRP, -1.49; that for RRIRVRPPRLPRPRPRPQDDPRP, -0.006.
